B1: 22148 (protein)
chain: MALPVTALLLPLALLLHAARPACEVQLLESGGGLIQPGGSLRLSCAASGFTFSSHAMTWVRQAPGKGLEWVSAISGSGDYTHYADSVKGRFTISRDNSKNTVYLQMNSLRAEDSAVYYCAKDEDGGSLLGHRGQGTLVTVSSGTGGGGSGGGGSGGGGSEFDVVMTQSPSSLSASVGDRVTITCMASEDIYIRLAWYQQKPGNAPKLLIYAATSLETGVPSRFSGSGSGTDFTLTISSLQPEDFATYYCQQYWSSPWTFGGGTKVEIKLEGQPKANPTVTLFPPSSEELQANKATLVCLISDFYPGAVTVAWKADGSPVKAGVETTKPSKQSNNKYAASSYLSLTPEQWKSHRSYSCQVTHEGSTVEKTVAPTECSPIKTDVITMDPKDNCSKDANDTLLLQLTNTSAYYMYLLLLLKSVVYFAIITCCLLRRTAFCCNGEKSRAKRSGSGATNFSLLKQAGDVEENPGPTSATMDWIWRILFLVGAATGAHSGPQVQLQESGGGLAQAGGSLRLSCAASGRTFSMGWFRQAPGKEREFVAAITYSGGSPYYASSVRGRFTISRDNAKNTVYLQMNSLKPEDTAVYYCAANPTYGSDWNAENWGQGTQVTVSSGSGGGGSGGGGSGGGGSFEQVQLQESGPGLVKPSQTLSLTCTVSGYSITSDYTWNWIRQPPGNGLEWIGYITYSGSTSYNPSLKSRVLISVDTSKNQVSLKLSSVTAADTAVYYCARLGRRYTMDYWGQGTTVTVSSTRASTKGPSVFPLAPSSKSTSGGTAALGCLVKDYFPEPVTVSWNSGALTSGVHTFPAVLQSSGLYSLSSVVTVPSSSLGTQTYICNVNHKPSNTKVDKRVEPKSCEVKTDSTDHVKPKETENTKQPSKSCHKPKAIVHTEKVNMMSLTVLGLRMLFAKTVAVNFLLTAKLFFLRAKRSGSGVKQTLNFDLLKLAGDVESNPGPSRGHMTEYKPTVRLATRDDVPRAVRTLAAAFADYPATRHTVDPDRHIERVTELQELFLTRVGLDIGKVWVADDGAAVAVWTTPESVEAGAVFAEIGPRMAELSGSRLAAQQQMEGLLAPHRPKEPAWFLATVGVSPDHQGKGLGSAVVLPGVEAAERAGVPAFLETSAPRNLPFYERLGFTVTADVEVPEGPRTWCMTRKPGA
B2: 22149 (protein)
chain: MALPVTALLLPLALLLHAARPACEVQLLESGGGLIQPGGSLRLSCAASGFTFSSHAMTWVRQAPGKGLEWVSAISGSGDYTHYADSVKGRFTISRDNSKNTVYLQMNSLRAEDSAVYYCAKDEDGGSLLGHRGQGTLVTVSSGTGGGGSGGGGSGGGGSEFDVVMTQSPSSLSASVGDRVTITCMASEDIYIRLAWYQQKPGNAPKLLIYAATSLETGVPSRFSGSGSGTDFTLTISSLQPEDFATYYCQQYWSSPWTFGGGTKVEIKLEGQPKANPTVTLFPPSSEELQANKATLVCLISDFYPGAVTVAWKADGSPVKAGVETTKPSKQSNNKYAASSYLSLTPEQWKSHRSYSCQVTHEGSTVEKTVAPTECSGRADCGFTSESYQQGVLSATILYEILLGKATLYAVLVSALVLMAMVKRKDSRGRAKRSGSGATNFSLLKQAGDVEENPGPTSATMDWIWRILFLVGAATGAHSGPQVQLQESGGGLAQAGGSLRLSCAASGRTFSMGWFRQAPGKEREFVAAITYSGGSPYYASSVRGRFTISRDNAKNTVYLQMNSLKPEDTAVYYCAANPTYGSDWNAENWGQGTQVTVSSGSGGGGSGGGGSGGGGSFEQVQLQESGPGLVKPSQTLSLTCTVSGYSITSDYTWNWIRQPPGNGLEWIGYITYSGSTSYNPSLKSRVLISVDTSKNQVSLKLSSVTAADTAVYYCARLGRRYTMDYWGQGTTVTVSSTRASTKGPSVFPLAPSSKSTSGGTAALGCLVKDYFPEPVTVSWNSGALTSGVHTFPAVLQSSGLYSLSSVVTVPSSSLGTQTYICNVNHKPSNTKVDKRVEPKSCIPEDTFFPSPESSCDVKLVEKSFETDTNLNFQNLSVIGFRILLLKVAGFNLLMTLRLWSSRAKRSGSGVKQTLNFDLLKLAGDVESNPGPSRGHMTEYKPTVRLATRDDVPRAVRTLAAAFADYPATRHTVDPDRHIERVTELQELFLTRVGLDIGKVWVADDGAAVAVWTTPESVEAGAVFAEIGPRMAELSGSRLAAQQQMEGLLAPHRPKEPAWFLATVGVSPDHQGKGLGSAVVLPGVEAAERAGVPAFLETSAPRNLPFYERLGFTVTADVEVPEGPRTWCMTRKPGA
B3: SEQ ID NO: 21975: bispecific SIR: MPL-175 scFv linked to hCD19-Bu12 scFv attached to hTCRα-CSDVP via MYC tag; hTCRβ-KACIAH carries a V5 tag (protein)
chain: MALPVTALLLPLALLLHAARPLEGKPIPNPLLGLDSTGSGEDLKNVFPPEVAVFEPSKAEIAHTQKATLVCLATGFYPDHVELSWWVNGKEVHSGVCTDPQPLKEQPALNDSRYCLSSRLRVSATFWQNPRNHFRCQVQFYGLSENDEWTQDRAKPVTQIVSAEAWGRADCGITSASYHQGVLSATILYEILLGKATLYAVLVSALVLMAMVKRKDSRGRAKRSGSGATNFSLLKQAGDVEENPGPTSMALPVTALLLPLALLLHAARPDQIVLTQSPAIMSASPGEKVTISCSASSSVSYMYWYQQKPGSSPKPWIYRTSNLASGVPARFSGSGSGTSYSLTISNMEAEDAAAYYCQQYHSYPTTFGGGTKLEVKGGGGSGGGGSGGGGSEVQLVESGGGLVQPKGSLKLSCAASGFSFNTYAMNWVRQAPGKGLEWIAHIRSKSNNFATYYADSVKDRFSISRDASENILFLQMNNLKTEDTAMYYCVRQGGDFPMDYWGQGTSVTVSSTREAAAKEIVLTQSPATLSLSPGERATLSCSASSSVSYMHWYQQKPGQAPRLLIYDTSKLASGIPARFSGSGSGTDFTLTISSLEPEDVAVYYCFQGSVYPFTFGQGTKLEIKRGGGGSGGGGSGGGGSQVQLQESGPGLVKPSQTLSLTCTVSGGSISTSGMGVGWIRQHPGKGLEWIGHIWWDDDKRYNPALKSRVTISVDTSKNQFSLKLSSVTAADTAVYYCARMELWSYYFDYWGQGTLVTVSSTREQKLISEEDGSGIQNPDPAVYQLRDSKSSDKSVCLFTDFDSQTNVSQSKDSDVYITDKCVLDMRSMDFKSNSAVAWSNKSDFACANAFNNSIIPEDTFFPSSDVPCDVKLVEKSFETDTNLNFQNLSVIGFRILLLKVAGFNLLMTLRLWSSRAKRSGSGVKQTLNFDLLKLAGDVESNPGPSRGHMTEYKPTVRLATRDDVPRAVRTLAAAFADYPATRHTVDPDRHIERVTELQELFLTRVGLDIGKVWVADDGAAVAVWTTPESVEAGAVFAEIGPRMAELSGSRLAAQQQMEGLLAPHRPKEPAWFLATVGVSPDHQGKGLGSAVVLPGVEAAERAGVPAFLETSAPRNLPFYERLGFTVTADVEVPEGPRTWCMTRKPGA

Assays:
Assay type in all cases: cell-based
HEL 92.1.7 cells = test: JNG assay, co-culture with HEL 92.1.7 cells; details: for NFAT-GFP ASSAY: HEL 92.1.7: co-culture with HEL 92.1.7
Method: Cellular supernatant is collected and assayed for the induction of cytokines (e.g., IL2).
JNG (Jurkat cells expressing EGFP under an NFAT promoter) were infected with lentiviral vectors encoding different single chain and multi-chain SARs by spinfection in the presence of 8 µg/ml of Polybrene® (Sigma, Catalog no. H9268). The Jurkat-NFAT-GFP cells are engineered in such a way that the IL-2 promoter, which carries NFAT binding sites, is cloned upstream of the GFP gene. These cells have been used to study signaling via TCR and CAR. The different SARs were stably expressed in Jurkat NFAT-GFP cells by lentiviral mediated gene transfer, followed by selection with puromycin or blasticidin. No drug selection was used in case the construct lacked an antibiotic resistance gene. The SAR-expressing Jurkat-NFAT-GFP cells were cocultured with the target cells at E:T ratio of approximately 1:2 for approximately 4 hours to 18 hours. When the interaction between SIRs and their target antigen results in activation of the NFAT pathway, GFP expression is induced. […] GFP expression was monitored by FACS analysis. The Jurkat-NFAT-GFP (parental) cells were used as control. The structure of different constructs can be determined based on their names. […] The sequence of the other constructs in the table can be similarly determined from their names and by referring to the different Tables of this disclosure that provide the names and SEQ ID NO of the different modules. Alternatively, the composition and modular architecture of the different SAR constructs can be determined from their sequences by bioinformatics tools, including using nucleic acid and amino acids homology searches. […] The signs +/-, +, 2+ etc. after the name of the cell lines indicate the relative degree of positivity on the Jurkat-NFAT-GFP assay as measured by the % GFP positive cells after culture of the SAR expressing Jurkat-NFAT-GFP cells with that cell line above the % GFP cells observed in parental Jurkat NFAT-GFP cells serving as controls. […]

RAJI cells = test: JNG assay, co-culture with RAJI cells; details: for NFAT-GFP ASSAY: Raji: JNG cells expressing construct, co-culture with Raji
Summary of the method: (§1)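 Jurkat NFAT-GFP (JNG) cells stably transduced with SARs by lentivirus, with drug selection where the construct carried a resistance gene, then co-cultured with target cells at E:T ~1:2 for ~4–18 h. % GFP-positive cells measured by FACS against parental JNG; +/- to 5+ correspond to ~5–50% GFP-positive.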

U266 cells = test: JNG NFAT-GFP induction on co-culture with U266
L363 cells = test: JNG assay, co-culture with L363 cells; details: co-culture with L363
Summary of the method: as §1

Nalm6 cells = test: JNG assay, co-culture with Nalm6 cells; details: co-culture with Nalm6 cells
Summary of the method: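 Read-out is % GFP-positive cells by flow cytometry after ~4–18 h co-culture (E:T ≈1:2) of target lines with SAR-transduced, puromycin/blasticidin-selected JNG cells. Grades +/-, +, 2+…5+ correspond to approximately 5%, 10%, 20%, 30%, 40%, 50% GFP+ over parental JNG controls.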

| Molecule | NFAT-GFP ASSAY: HEL 92.1.7 (HEL 92.1.7 cells) | NFAT-GFP ASSAY: Raji (RAJI cells) | NFAT-GFP ASSAY: U266 (U266 cells) | NFAT-GFP ASSAY: L363 (L363 cells) | GFP induction / activity (Nalm6 cells) | GFP induction (HEL 92.1.7 cells; co-culture with MPL expressing HEL 92.1.7 cells) | GFP induction / activity (RAJI cells; co-culture with RAJI cells) |
| --- | --- | --- | --- | --- | --- | --- | --- |
| B1 | + (refer to approximately 5%, 10%, 20%, 30%, 40% and 50% GFP positive cells) | 3+ (refer to approximately 5%, 10%, 20%, 30%, 40% and 50% GFP positive cells) | – | – | – | – | – |
| B2 | +/- (refer to approximately 5%, 10%, 20%, 30%, 40% and 50% GFP positive cells) | 3+ (refer to approximately 5%, 10%, 20%, 30%, 40% and 50% GFP positive cells) | 3+ (refer to approximately 5%, 10%, 20%, 30%, 40% and 50% GFP positive cells) | + (refer to approximately 5%, 10%, 20%, 30%, 40% and 50% GFP positive cells) | – | – | – |
| B3 | – | – | – | – | only weak activity | marginal GFP induction | only weak activity |

Source: patent US20230212319A1, “NOVEL ANTIGEN BINDING DOMAINS AND SYNTHETIC ANTIGEN RECEPTORS INCORPORATING THE SAME” (University of Southern California, priority 2020, published 2023)
